Numbering of substitutions follows the chain as printed. In names and notes the source's numbering stands.
B1: gp577 mutant D92A (enzyme, Acanthamoeba polyphaga mimivirus, UniProt A0A0G2YDL0 1-470, looked up)
chain: MAEDKIEAYNKSITRTKYFKMDDAINSPICSKTVFIIANERITKENRIGRYYTVFPSFKKFLKKRDSYPHCHEIIIDHINNKTNIAGRLVFAFDIKITDSSILKDTGLIDKNDNQPIMFNSKTLSITKIPLNFKQQIENTIIETIDQYFHDIDKTILEFIWSTSQNPNKFSKHLTVKNLYFDDWITMSKLFYKLFCKVWDNQYYWISSKDLVDSQIVRNKGSLRMVGSTKINGYPLVFDNKNHTLPDSLIRIYFRNHREKEQLVTRNNINKDIINQFLESNDDIEHHRSIDIIDRHFTKIRNPSYDPIIYQKAFEIYDAIHPNIFKMGKVNGKYLTLIRLKPHKCFLSNKFHEQENAYLYISMSDTTYKISFGCYRFCSKKKMEYLGSLIQGNLMKNSPYIDDTDGTTKKHDFNINIKFLSDSDDESINAPNNIKSLESIKSSKSKKQLKSSKSKKPIKHTKTKNIYVET
B2: gp577 mutant D151A (enzyme, Acanthamoeba polyphaga mimivirus, UniProt A0A0G2YDL0 1-470, looked up)
chain: B1 chain with A92D, D151A
B3: gp577 mutant H173A (enzyme, Acanthamoeba polyphaga mimivirus, UniProt A0A0G2YDL0 1-470, looked up)
chain: B1 chain with A92D, H173A
B4: gp577 mutant D213A (enzyme, Acanthamoeba polyphaga mimivirus, UniProt A0A0G2YDL0 1-470, looked up)
chain: B1 chain with A92D, D213A
B5: gp577 mutant D239A (enzyme, Acanthamoeba polyphaga mimivirus, UniProt A0A0G2YDL0 1-470, looked up)
chain: B1 chain with A92D, D239A

Target: the molecule itself
Assay: SEC

| Protein | stoichiometry N |
| --- | --- |
| B1 | 2 |
| B2 | 2 |
| B3 | 2 |
| B4 | 2 |
| B5 | 2 |

— PMC6648351 (Nucleic Acids Research, 2019)
